Holding throughout (assay): EIA, captured mAb
The target of assay [1] is biotinylated HCV core peptide 141-161 (Peptide 2) (HCV-1).
Assay [2] has as its target biotinylated HCV core peptide 151-171 (Peptide 3) (HCV-1).
Assay [3] addresses biotinylated HCV core peptide 134-154 (Peptide 1) (HCV-1).

Numbering of substitutions follows the chain as printed.

Experimental findings from US9371374 are described below.

B1: HCV 208A-207 (antibody, V domains shown)
VH: QGQLQQPGAEFVKPGASLKLSCRASGYTFTSYWIHWVKQRPGQGLEWIGEIDPSDSYINQNQKFRGKATLTVDKSSSTAYMELSGLTSEDSAVYYCARHYYGVLDSWGQGTTLTVSS
VL: DIVLTQSPATLSVTPGDRVSLSCRASQRIYNYLHWYQQKSHESPRLLTKYASQSISGIPSRFSGSGSGTDFILTINSVETEDFGMYFCQQSNSWPLTFGAGTKLELRR
Take B1: the values for the Reactivity (OD492) in assay [1], in assay [2] and in assay [3] were 0.17 OD, 0.08 OD and 1.24 OD, respectively.

B2: HCV 208A-159 (antibody, V domains shown)
VH: QLQQSGPAQVKPGASVMISCKTSGYTFTENAMHWVKQSHGKSLEWIGGVNPNNGDTIFNQKFKDKAALTVDKSSSTAFMELRSLTSEESTVYYCVRRELDFFDYWGQGTSVTVSS
VL: DIVLTQSPASLAVSLGQRATISCRASQSVSTSRYSYVHWYQQKPGQPPKLLIKYAANLESGVPARFSGSGSGTDFTLNIHPVAEEDAAAYYCQHSWEFPFTFGSGTKLEIKR
For B2, the Reactivity (OD492) in assay [1] amounted to 3.77 OD; in assay [2] it was 0.19 OD; in assay [3], 0.15 OD.

B3: HCV 208A-134 (antibody, V domains shown)
VH: QGQMQQSGAELAKPGASVKLSCKTSGFTFSSSYISWLKQKPGQSLEWIAWIYAGTGNTNYNQKFTDKAQLTVDTSSSTAYMQLSSLTTEDSAIYYCAISGTGFTYWGQGTLVTVSA
VL: EVLMTQSPLSLPVSLGDQASISCRSSQSLEHTNGNTYLEWFLQRPGQPPKLLIYKVSSRFSGVPDRFSGSGSGTDFTLKISRVEAEDLGVYYCFQGSHVPFTFGSGTKLAIKR
On to B3, for which the values for the Reactivity (OD492) in assay [1], in assay [2] and in assay [3] were 0.08 OD, 0.06 OD and 2.06 OD, respectively.

B4: HCV 208A-352 (antibody, V domains shown)
VH: B3 VH with A12V, Y33F, L83F
VL: DVLMAQTPLSLPVTLGDQASISCRSSQSLVHSNGNTYLEWFLQKPGQSPKLLIYNVSNRFSGVPDRFSGSGSGTDFTLKISRVEAEDLGVYYCFQGSHVPLTFGSGTKLEIKR
Turning to B4, the Reactivity (OD492) came to 0.07 OD in assay [1], 0.06 OD in assay [2] and 1.08 OD in assay [3].

B5: HCV 208A-557 (antibody, V domains shown)
VH: B3 VH with A12V
VL: B2 VL with V3A, V37M, K49E, A56S, A83G, A87T, A89T, E97D
As for B5, the results for the Reactivity (OD492) in assay [1], in assay [2] and in assay [3] were 2.41 OD, 0.06 OD and 0.05 OD, respectively.

B6: HCV 208A-210 (antibody, V domains shown)
VH: QVQLQQSGPELVKPGASMRISCKASGYTFTSYYVHWIKQRPGQGLEWIGCIYPGDVNTDYNEKFKGKATLTADKSSSTAYMQVSTLTSEDSAIYFCVLYYYGSFAYWGQGTLVTVSA
VL: EIVLTQSPAITAASLGQNVTITCRASSSVSYMHWYRQKSGTSPQLWIYEISRRASGVPARFRASGSGTSYSLTISSMEAEDAAIYYCQQWNYPLTFGAGTKLEVKR
Turning to B6, the Reactivity (OD492) in assay [1] was 1.15 OD; in assay [2] it was 0.05 OD; in assay [3] it was 0.06 OD.

B7: HCV 208A-1064 (antibody, V domains shown)
VH: EVQLQQSGPELVKPGASVKISCKTSGYTFTEYAMHWMKQSHGKSLEWIGGINPTNGDTIYNQKFKDKAKLTVDRSSSTAYMELRSLTSDDSALFYCARRELDYFASWGQGTTLTVSS
VL: DIVLTQSPASLIVSLGQTATISCRASQSVSTSRFSYLHWIQQKPGQPPKLLIKYASNLESGVPVRFSGSGSGTDFTLNIHPVEEEDTATYFCQHSWEFPFTFGSGTKLKIKR
B7: the Reactivity (OD492) in assay [1] was 3.5 OD; in assay [2] it was 0.12 OD; in assay [3], 0.1 OD.

B8: HCV 208A-222 (antibody, V domains shown)
VH: EVQLQQSGPELEKPGASVRISCKTSGYTFTEYAMHWVKQSHGKSLEWIGGINPNNGNAIYNQIFKDKATLTVDRSSSTAYMGLRSLTFGDSGVYFCVRRQLDYFDYWGQGASLTVSS
VL: B2 VL with L4V, V37L, A56S, A83G, A87T, A89T
Consider B8, for which the Reactivity (OD492) amounted to 2.7 OD in assay [1], 0.08 OD in assay [2] and 0.06 OD in assay [3].

B9: HCV 208A-133 (antibody, V domains shown)
VH: B2 VH with A8V, Q9L, K11G, K36E, D64G, A67T, L81F
VL: B2 VL with V37M, A56S, A87T, A89T
For B9, the Reactivity (OD492) in assay [1] turned out to be 3.68 OD; in assay [2] it was 0.13 OD; in assay [3], 0.1 OD.

B10: HCV 208A-605 (antibody, V domains shown)
VH: B8 VH with R19K, M34I, K43M, N54S, Y103F
VL: B2 VL with L4V, V37L, A56S, A83G, A87T, A89T
Consider B10, for which the values for the Reactivity (OD492) in assay [1], in assay [2] and in assay [3] were 3.71 OD, 0.16 OD and 0.22 OD, respectively.

B11: HCV 208A-126 (antibody, V domains shown)
VH: B2 VH with A8V, Q9L, D64G, A67T, S75N, M79T, T85P, E98G
VL: B2 VL with V37M, A56S, A87T
Consider B11, for which the Reactivity (OD492) amounted to 2.08 OD in assay [1], 0.1 OD in assay [2] and 0.2 OD in assay [3].

B12: HCV 208A-293 (antibody, V domains shown)
VH: B7 VH with T24A, Y27F, T58A, A105P
VL: B7 VL with T18R, L37V, T76I, K109E
For B12, the Reactivity (OD492) in assay [1] came out at 2.42 OD; in assay [2], 0.11 OD; in assay [3] it was 0.08 OD.

B13: HCV 208A-422 (antibody, V domains shown)
VH: DVQLQESGPGLVNPSQSLSLTCSVTGYSITSGYYWIWIQQSPGNKLEWMGYIKYDGGNNYSPSLKNRISIARDTSKNQCFLKLNSVTIEDTATYYCTRGSDSFDYWGQGTTLTVSS
VL: DIVLTQSPASLAVSLGQRAIISCKASQSVSFAGTNLMHWYQQKPGQQPKLLIYRASNLETGVPTRFSGSGSRTDFTLNIHPVEEDDAATYYCQQSREYYTFGGGTKLEIKR
For B13, the results for the Reactivity (OD492) in assay [1], in assay [2] and in assay [3] were 0.84 OD, 0.1 OD and 0.05 OD, respectively.

B14: HCV 208A-442 (antibody, V domains shown)
VH: B13 VH with Q39R, S41F, C79F
VL: B13 VL
For B14, the Reactivity (OD492) was 3.04 OD in assay [1], 0.06 OD in assay [2] and 0.08 OD in assay [3].
